The results in this text go back to article doi:10.1101/2025.09.10.672744, “UDP-glucose Activation of a G-protein/Sucrose Synthase Signaling Supercomplex” (bioRxiv, 2025).

In experiment [1] the target is T1, His-SUS1 (Arabidopsis, UniProt P49040 1-808).
T1 construct: Gateway pDEST17 adds linker residues between the His tag and the protein; also called SUCROSE SYNTHASE 1; source: E. coli ArcticExpress RP, purified (Ni-NTA, Superdex 200 SEC); not shown: 6xHis, N-terminal, kept
Put plainly: MST; sfGFP-RGS1(ΔC-tail) as the fluorescent target, His-SUS1 or His-SUS4 as ligands; NanoTemper Monolith NT.115. The note with it: both partners purified.

Experiment [2] addresses T2, His-SUS4 (Arabidopsis, UniProt Q9LXL5 1-808).
T2 construct: Gateway pDEST17 adds linker residues between the His tag and the protein; also called SUCROSE SYNTHASE 4; source: E. coli ArcticExpress RP, purified (Ni-NTA, Superdex 200 SEC); not shown: 6xHis, N-terminal, kept
The description is as above. The note with it: both partners purified.

T1 sequence (P49040 whole entry): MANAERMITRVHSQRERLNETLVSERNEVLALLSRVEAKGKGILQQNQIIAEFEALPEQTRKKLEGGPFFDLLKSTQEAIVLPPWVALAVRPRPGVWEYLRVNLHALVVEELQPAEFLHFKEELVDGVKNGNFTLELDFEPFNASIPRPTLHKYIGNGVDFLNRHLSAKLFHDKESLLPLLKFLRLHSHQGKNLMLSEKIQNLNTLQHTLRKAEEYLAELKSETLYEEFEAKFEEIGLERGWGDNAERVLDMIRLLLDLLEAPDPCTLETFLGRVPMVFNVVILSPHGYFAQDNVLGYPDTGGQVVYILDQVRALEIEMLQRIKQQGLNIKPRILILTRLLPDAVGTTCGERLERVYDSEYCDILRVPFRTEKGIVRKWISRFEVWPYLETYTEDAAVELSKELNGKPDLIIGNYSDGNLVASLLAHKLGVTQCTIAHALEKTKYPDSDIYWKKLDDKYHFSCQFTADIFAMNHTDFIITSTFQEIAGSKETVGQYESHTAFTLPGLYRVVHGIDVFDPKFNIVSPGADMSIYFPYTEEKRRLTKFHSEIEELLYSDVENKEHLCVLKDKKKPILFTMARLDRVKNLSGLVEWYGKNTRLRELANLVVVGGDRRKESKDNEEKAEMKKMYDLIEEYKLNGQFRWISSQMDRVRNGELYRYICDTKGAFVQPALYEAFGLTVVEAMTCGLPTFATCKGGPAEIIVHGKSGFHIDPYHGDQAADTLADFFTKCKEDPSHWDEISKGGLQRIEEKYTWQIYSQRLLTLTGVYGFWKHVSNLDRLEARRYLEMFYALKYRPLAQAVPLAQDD
T2 sequence (Q9LXL5 whole entry): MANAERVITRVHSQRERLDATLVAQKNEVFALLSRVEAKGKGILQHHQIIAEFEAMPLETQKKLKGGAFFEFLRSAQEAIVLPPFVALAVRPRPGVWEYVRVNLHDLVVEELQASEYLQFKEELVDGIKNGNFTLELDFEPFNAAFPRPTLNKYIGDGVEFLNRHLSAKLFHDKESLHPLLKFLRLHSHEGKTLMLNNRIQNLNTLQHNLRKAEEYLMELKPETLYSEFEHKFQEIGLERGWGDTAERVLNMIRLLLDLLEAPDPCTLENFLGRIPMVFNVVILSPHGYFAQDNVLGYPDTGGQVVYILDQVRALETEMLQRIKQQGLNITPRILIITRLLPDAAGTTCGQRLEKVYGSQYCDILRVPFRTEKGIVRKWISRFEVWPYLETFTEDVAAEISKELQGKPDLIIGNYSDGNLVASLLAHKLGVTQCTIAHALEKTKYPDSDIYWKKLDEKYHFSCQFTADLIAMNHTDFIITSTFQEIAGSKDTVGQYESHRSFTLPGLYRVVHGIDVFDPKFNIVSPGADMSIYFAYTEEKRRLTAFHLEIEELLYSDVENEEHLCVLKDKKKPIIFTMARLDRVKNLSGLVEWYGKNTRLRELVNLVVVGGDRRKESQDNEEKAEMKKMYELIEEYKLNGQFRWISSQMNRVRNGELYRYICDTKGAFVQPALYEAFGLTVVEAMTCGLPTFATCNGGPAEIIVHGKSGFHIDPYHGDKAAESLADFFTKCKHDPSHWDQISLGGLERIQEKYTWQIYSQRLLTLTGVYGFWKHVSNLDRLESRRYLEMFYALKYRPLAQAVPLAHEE

B1: HA–Flag–10xHis–sfGFP–TEV–Optimized–RGS1(ΔC-tail) (domain or fragment)
chain: MASGCALHGGCPSDYVAVAISVICFFVLLSRSVLPCLIHKAPRTNSSSFWIPVIQVISSFNLLFSIMMSVNLLRFRTKHWWRYCYLWAVWIEGPLGFGLLMSCRITQAFQLYFIFVKKRLPPVKSYIFLPLVLLPWIFGAAIIHATKPLNDKCHMGLQWTFPVAGLHALYVLALIAFTRAVRHVEFRFDELRDLWKGILVSATSIVIWVTAFVLNEIHEEISWLQVASRFVLLVTGGILVVVFFSISSNQPLLSQISLKKRQNFEFQRMGQALGIPDSGLLFRKEEFRPVDPNEPLDKLLLNKRFRHSFMEFADSCYAGETLHFFEEVYEHGKIPEDDSIRRIYMARHIMEKFIVAGAEMELNLSHKTRQEILTTQDLTHTDLFKNALNEVMQLIKMNLVRDYWSSIYFIKFKEEESCHEAMHKEGY
For B1, the equilibrium dissociation constant (Kd) (in general, the free concentration of one partner at which half of the binding sites on the other are occupied at equilibrium, for simple one-to-one binding) in experiment [1] worked out at 161 ± 9 nM; in experiment [2], 106 ± 3 nM.
